The results in this text go back to paper PMC8322156, “Nuclear condensates of p300 formed though the structured catalytic core can act as a storage pool of p300 with reduced HAT activity” (Nature Communications, 2021).

For data set [1], the system named is p300 BRPHZ, SIRT2-deacetylated (~4 Kac, outside the AIL) (human). In words: EMSA. Particulars: EMSA: 20 mM Tris-HCl pH 7.5, 50 mM NaCl (75 mM for NCP), 2 mM DTT, 5 min; 5% PAGE in 0.2x TBE (DNA) or 0.2x TB (NCP), 100 V, on ice; SYBR Gold.
Data set [2] deals with T1, SIRT2-treated p300_(BRPHZ) (catalytic core BD-RING-PHD-HAT-ZZ, aa 1035-1720 of p300), hypoacetylated (human, UniProt Q09472 1035-1720, on average 4 acetyl-lysines outside the AIL left after SIRT2 treatment (sites not given)).
T1 construct: human p300, BD-RING-PHD-HAT-ZZ region (BRPHZ), amino acids 1035-1720; Heterogeneously acetylated; Vector pGEX-6P-1; also called SIRT2-deacetylated p300BRPHZ; deacetylated p300
T1 sequence (looked up): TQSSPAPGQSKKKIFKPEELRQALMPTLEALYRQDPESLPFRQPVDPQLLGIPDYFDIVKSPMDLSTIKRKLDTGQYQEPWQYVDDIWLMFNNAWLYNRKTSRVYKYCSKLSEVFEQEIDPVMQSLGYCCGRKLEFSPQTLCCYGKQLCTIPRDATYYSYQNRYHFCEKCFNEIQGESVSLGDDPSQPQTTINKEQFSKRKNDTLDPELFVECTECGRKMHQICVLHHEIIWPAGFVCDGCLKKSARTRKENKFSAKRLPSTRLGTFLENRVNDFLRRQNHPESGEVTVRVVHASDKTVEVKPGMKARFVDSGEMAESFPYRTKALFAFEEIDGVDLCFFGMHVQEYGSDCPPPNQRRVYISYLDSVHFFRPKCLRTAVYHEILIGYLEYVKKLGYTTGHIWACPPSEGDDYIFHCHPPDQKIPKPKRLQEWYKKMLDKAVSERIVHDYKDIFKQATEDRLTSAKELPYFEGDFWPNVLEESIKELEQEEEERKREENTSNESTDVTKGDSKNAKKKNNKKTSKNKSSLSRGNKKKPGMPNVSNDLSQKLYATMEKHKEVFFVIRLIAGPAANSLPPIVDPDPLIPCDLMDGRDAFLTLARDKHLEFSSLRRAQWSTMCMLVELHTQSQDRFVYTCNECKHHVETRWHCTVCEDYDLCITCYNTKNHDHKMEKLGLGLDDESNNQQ
Description: recruitment of a labelled peptide into condensates (confocal microscopy); 13 uM SIRT2-treated p300 condensates (PEG-induced) mixed with 6 uM FAM-labeled H3 tail (aa 1-12); FAM alone as control. Particulars: both partners purified.

No end group written: not given here.

In data set [1], 601 DNA 147 bp had a Kd of 300 nM.

B1: fluorescein (FAM)-labeled histone H3 tail peptide (residues 1-12 of H3) (peptide, UniProt P68431 2-13, looked up)
peptide: ARTKQTARKSTG
modifications: also: fluorescein (FAM) label, position not given here
notes: histone H3 tail, residues 1-12, unmodified; also called FAM-H3; FAM-labeled H3_(1-12) peptide
Consider B1, for which the binding result in data set [2] is reported as “binds”.
